“Also recorded” adds a separate entry of the source.

Holding throughout (format): cell-based
Experiment [1] has as its system human CD3 T cells. Nature of the experiment: Transfection of human CD3 T cells (CD8 and CD4 subsets) with Fab/Nb-targeted LNPs. Conditions: targeted Lipid 8 LNP (Lipid 5 in Example 43), GFP mRNA approximately 2.5 μg/mL, approximately 24 hr. The procedure: LNPs were prepared using the mixing process described in Example 6, the buffer exchange process described below in Example 21. Using methods similar to Example 12, hSP34 and TRX2 Fab-lipid conjugates and a non-T cell specific anti-HER2 lipid-conjugate (Nellis D F, Ekstrom D L, Kirpotin D B, Zhu J, Andersson R, Broadt T L, Ouellette T F, Perkins S C, Roach J M, Drummond D C, Hong K, Marks J D, Park J W and Giardina S L (2005) Preclinical manufacture of an anti-HER2 scFv-PEG-DSPE, liposome-inserting conjugate. 1. Gram-scale production and purification. Biotechnol Prog 21:205-220) were post-inserted at various densities (SP34 0.25-17 g/mol; TRX2 0.25-9 g/mol; SP34+TRX2 0.25-9 g/mol each conjugate; anti-HER2 17 g/mol) into LNPs containing Lipid 8 and anti-CD20 targeting CART mRNA. Transfections were performed with human CD3 T cells at approximately 2.5 μg/mL mRNA for approximately 24 hr. For FACS analysis T cells were stained with M1 antibody (Sigma, F3040) that bind a N-terminus FLAG-tag variant sequence on the TTR-023 CAR (sequence provided below) in addition to staining for CD69 (Biolegend, 310930) and CD4 (Biolegend, 344648) to differentiate CD8 from CD4 cells.
LNPs were prepared using the mixing process described in Example 6, the buffer exchange process described in Example 21. Using methods similar to Example 12, hSP34, TRX2, and Ibalizumab Fab-lipid conjugates and a non-T cell specific anti-HER2 lipid-conjugate were post-inserted at various densities (specified in FIGS. 20A and 20B into LNPs containing Lipid 8 and Cy5/GFP mRNA. Transfections were performed with human CD3 T cells at approximately 2.5 μg/mL mRNA for approximately 24 hr and stained for CD69 (Biolegend, 310930) and CD4 (Biolegend, 344648) to differentiate CD8 from CD4 cells by FACS analysis.
LNPs were prepared using the mixing process described in Example 6, the buffer exchange process described in Example 21. Conjugates were generated using a method similar to that of Example 4 except 0.025, 0.1, 0.5 mM TCEP was used for hSP34 DS, 0.025, 0.2, 2 mM TCEP was used for hSP34-hlam NoDS (interchain disulfide knockout) for reduction prior to conjugation and the conjugation reactions were performed at 37 C for 2 hr. SDS-PAGE (FIGS. 65A, 65B) was performed using the manufacturers recommended conditions with 1 ug of protein (Thermo, 4-12% Bis-Tris MiniGel). RP-HPLC (FIGS. 65C, 65D) was performed using an Agilent 300 SB-C8 at 0.5 mL/min with a column temperature of 60° C., Mobile Phase A: Water with 0.1% TFA, Mobile Phase B: Acetonitrile with 0.1% TFA, Gradient % B: 0 min 5%, 1 min 5%, 6.5 min 95%, 8 min 95% injecting 10 ul with a target of 1-25 ug of protein. Using methods similar to Example 12, ant-CD3 hSP34 (with and without natural interchain disulfide, DS (with interchain disulfide) vs. NoDS (without interchain disulfide), see sequences below) PEG-lipid conjugated Fabs were post-inserted at various Fab densities (6, 12, 17 g Fab/mol total lipid) into LNPs containing Lipid 8 and Cy5/GFP mRNA. Transfections were performed with human CD3 T cells at approximately 2.5 μg/mL mRNA for approximately 24 hr. Levels of transfection of CD3 T cells was measured by flow cytometry.
LNPs were prepared using the mixing process described in Example 6, the buffer exchange process described in Example 21. Conjugates were generated using a method similar to that of Example 4 except 0.1 mM TCEP was used for reduction prior to conjugation and the conjugation reaction was performed at 37 C for 2 hr. […]

Experiment [2] concerns IFNγ. As to the kind of experiment: Human IFNγ ELISA of T cell culture supernatants after LNP transfection. As to conditions: T cells approximately 24 hr after targeted LNPs at approximately 2.5 μg/mL mRNA. The procedure:
(§1) LNPs were prepared using the mixing process described in Example 6, the buffer exchange process described in Example 21. hSP34 and TRX2 Fab-lipid conjugates generated from methods described in Example 4 and a non-T cell specific anti-HER2 lipid-conjugate (Nellis D F, Ekstrom D L, Kirpotin D B, Zhu J, Andersson R, Broadt T L, Ouellette T F, Perkins S C, Roach J M, Drummond D C, Hong K, Marks J D, Park J W and Giardina S L (2005) Preclinical manufacture of an anti-HER2 scFv-PEG-DSPE, liposome-inserting conjugate. 1. Gram-scale production and purification. Biotechnol Prog 21:205-220) were post-inserted at various densities (SP34 0.6-17 g/mol; TRX2 3-9 g/mol; anti-HER2 17 g/mol) into LNPs containing Lipid 8, Cy5 labeled GFP mRNA and GFP mRNA (1:9 Cy5:GFP mass ratio) by adding conjugate and LNPs together and heating the solution without mixing in a thermal cycler at 60 C for 60 min and cooled to 4° C. for 3-5 min. […] After transfection, LNP binding efficiency (Cy5) and transfection efficiency (GFP) was evaluated by flow cytometry. Supernatants were measured for human IFNγ concentration using a commercially available ELISA kit under manufacturers recommended conditions (R&D Systems Duoset).
IFN-γ was assayed using an R&D Duoset […] ELISA kit, PN DY285B. […] Optical density at 450 nm was read on a Spectramax M5 plate reader. […]
A general note: ELISA stands for enzyme-linked immunosorbent assay.

Experiment [3] has as its system human CD8 T cells. As to the kind of experiment: Transfection of human CD8 T cells with Fab-targeted Cy5/GFP mRNA LNPs. As to conditions: Lipid 8 LNP, Cy5/GFP mRNA approximately 2.5 μg/mL, approximately 24 hr, Fab conjugate post-inserted. The procedure: as §1, with “Duoset). […]” for “Duoset).”

B1: BDSn: anti-CD8 Nanobody, SEQ ID NO: 77 (protein)
VHH: EVQLVESGGGLVQAGGSLRLSCAASGSTFSDYGVGWFRQAPGKGREFVADIDWNGEHTSYADSVKGRFATSRDNAKNTAYLQMNSLKPEDTAVYYCAADALPYTVRKYNYWGQGTQVTVSSGGCGGHHHHHH
modifications: conjugate
Turning to B1, the “% GFP transfection and GFP expression (MFI) of CD8 and CD4 T cells, in words” value in experiment [1] is “higher % transfection (FIG. 73A) and GFP expression levels (FIG. 73B) than anti-CD8 TRX2; also recorded: transfection and translation was only observed in the CD8 T cell population”. For the same molecule, the “IFNγ secretion into supernatant, in words” value in experiment [2] is reported as “did not mediate substantial IFNγ secretion levels over non-targeted mutOKT8 Fab”.

B2: Teplizumab: anti-CD3 Teplizumab bDS Fab, SEQ ID NO: 54 and 55 (antibody)
heavy: QVQLVQSGGGVVQPGRSLRLSCKASGYTFTRYTMHWVRQAPGKGLEWIGYINPSRGYTNYNQKVKDRFTISRDNSKNTAFLQMDSLRPEDTGVYFCARYYDDHYCLDYWGQGTPVTVSSASTKGPSVFPLAPSSKSTSGGTAALGCLVKDYFPEPVTVSWNSGALTSGVHTCPAVLQSSGLYSLSSVVTVPSSSLGTQTYICNVNHKPSNTKVDKKVEPKSSDKTHTCHHHHHH
light: DIQMTQSPSSLSASVGDRVTITCSASSSVSYMNWYQQTPGKAPKRWIYDTSKLASGVPSRFSGSGSGTDYTFTISSLQPEDIATYYCQQWSSNPFTFGQGTKLQITRTVAAPSVFIFPPSDEQLKSGTASVVCLLNNFYPREAKVQWKVDNALQSGNSQESVTEQDSKDSTYSLCSTLTLSKADYEKHKVYACEVTHQGLSSPVTKSFNRGES
With B2, the “% GFP transfection and GFP expression (MFI) of CD8 and CD4 T cells, in words” value in experiment [1] was “lower levels of GFP expression”. In addition, in experiment [2], the “IFNγ secretion into supernatant, in words” value is “higher levels of IFNγ secretion than SP34”.

B3: OKT8: anti-CD8 Fab, SEQ ID NO: 8 and 9 (antibody)
heavy: QVQLVQSGAEDKKPGASVKVSCKASGFNIKDTYIHWVRQAPGQGLEWMGRIDPANDNTLYASKFQGRVTITADTSSNTAYMELSSLRSEDTAVYYCGRGYGYYVFDHWGQGTTVTVSSASTKGPSVFPLAPSSKSTSGGTAALGCLVKDYFPEPVTVSWNSGALTSGVHTFPAVLQSSGLYSLSSVVTVPSSSLGTQTYICNVNHKPSNTKVDKKVEPKSSDKTHTC
light: DIVMTQSPSSLSASVGDRVTITCRTSRSISQYLAWYQEKPGKAPKLLIYSGSTLQSGVPSRFSGSGSGTDFTLTISSLQPEDFATYYCQQHNENPLTFGQGTKVEIKRTVAAPSVFIFPPSDEQLKSGTASVVCLLNNFYPREAKVQWKVDNALQSGNSQESVTEQDSKDSTYSLSSTLTLSKADYEKHKVYACEVTHQGLSSPVTKSFNRGES
With B3, the “transfection (% GFP+, GFP MFI) and binding (% Cy5+, Cy5 MFI), in words” value in experiment [3] is “high levels of particle binding”.
